Results: patent US20240209086A1 (PETMEDIX, published 2024)

Tests used:
[1] = target: T1, canine CD20 on cells (HEK293, MDCK II, CLBL-1 or native B cells) (canine, UniProt Q3C2E2 1-297); experiment: flow cytometry, canine CD20 HEK293 cells, FITC anti-canine IgG
T1 construct: also called dCD20; cCD20
T1 chain: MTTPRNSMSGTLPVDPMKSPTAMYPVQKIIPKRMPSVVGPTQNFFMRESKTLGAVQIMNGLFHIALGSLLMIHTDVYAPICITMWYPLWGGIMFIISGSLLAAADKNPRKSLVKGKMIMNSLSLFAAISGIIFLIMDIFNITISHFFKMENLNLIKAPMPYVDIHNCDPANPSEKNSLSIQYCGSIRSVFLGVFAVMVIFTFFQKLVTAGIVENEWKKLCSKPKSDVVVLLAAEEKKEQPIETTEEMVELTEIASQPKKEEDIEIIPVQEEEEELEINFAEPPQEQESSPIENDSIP
Method: (§1) A CD20 binding screen was performed on candidate proteins produced from the canine CD20 immunisation as described in Examples 2 and 3. CHO cells supernatants containing candidate antibodies were diluted to 10 μg/ml in FACS buffer (PBS containing 3% FBS) and screened for their ability to bind canine CD20 expressed on cell surface. In brief, 1-2×10⁵ canine CD20-expressing HEK cells were incubated with candidate mAbs for one hour at 4° C., at a fixed concentration of 10 μg/ml followed by incubation with 5 μg/ml of FITC-conjugated anti-canine IgG secondary antibody (Bethyl Laboratories) for 1 hour at 4° C. Cells incubated with anti-canine IgG FITC secondary antibody and without primary anti-canine CD20 antibody, or with isotype control primary antibody, were used as negative controls. The data were acquired on either a Beckman Coulter CytoFLEX or a BD Accuri C6 Plus flow cytometer and analysed using FlowJo software.

[2] = target: T1, canine CD20 on cells (HEK293, MDCK II, …); experiment: flow cytometry, canine CD20-expressing HEK cells, 10 µg/ml
Method: as §1

B1: PMX251 (monospecific anti-canine CD20, canine IgG-B, lambda C5) (antibody, V domains shown)
VH: EVQLVESGGDLVKPGGSLRLSCVASGFTFSSYHMSWVRQAPGKGLQWVAYINSGGSSTSYADAVKGRFTISRDNAKNTLYLQMNSLRAEDTAVYYCASFDYWGQGTLVTVSS
VL: SYVLTQLPSKNVTLKQPAHITCGGDNIGSKSVHWYQQKLGQAPVLIIYYDSSRPTGIPERFSGANSGNTATLTISGALAEDEADYYCQVWDSSANVFGGGTHLTVLG
[1]
  binding result: no binding (tested: 10 µg/ml)

B2: PMX244 (monospecific anti-canine CD20, canine IgG-B, lambda C5) (antibody, V domains shown)
VH: EVQLVESGGDLVKPGGSLRLSCVASGFTFSRYHMSWVRQAPGKGLQWVAYINSGGSDSDYADAVKGRFTISRDNAKNTLYLQMNSLRAEDTAVYYCTSLDYWGQGTLVTVSS
VL: SYVLTQLPSKNVTLKQPAHITCGGDNIGSKSVHWYQQKLGQAPILIIYYDRRRPTGIPERFSGANSGNTATLTISGALAEDEADYYCQVWDRSGNVFGGGTHLTVLG
[2]
  binding result: binds

B3: PMX250 (monospecific anti-canine CD20, canine IgG-B, lambda C5) (antibody, V domains shown)
VH: EVQLVESGGDLVKPGGSLRLSCVASGFTFSSYHMSWVRQAPGKGLQWVAYINSGGSSTSYADAVKGRFTISRDNAKNTLYLQMTSLRAEDTAVYYCTSFDYWGQGTLVTVSS
VL: SYVLTQLPSKNVTLKQPAHITCGGDNIGSKSVHWYQQKLGQAPVLIIYYDSSRPTGIPERFSGANSGNTATLTISGALAEDEADYYCQVWDSSANVFGGGTHLTVLG
[1]
  binding result: no binding (tested: 10 µg/ml)
